Experimental data published in US20210388043A1 (IMMUNEONCO BIOPHARMACEUTICALS SHANGHAI, published 2021).

Target: T1, HY03M (human)
T1 construct: Homodimer; also called SIRPαD1-Fc (N89A)
Assay: ELISA on coated FcγR; HY03M is the reference against which HY03MM was decreased (FIG. 9A)
Experimental: The binding activities of proteins of the present invention to FcγRs were tested by ELISA as follows.
The plate was left in a refrigerator at 4° C. overnight. Immediately before the test, the plate was washed by 0.05% PBS-T and then blocked by 3% skim milk for 1 hour at room temperature. […] After incubated at room temperature for 1 hour, the liquids in the plate were discarded. […] The plate was incubated at room temperature for 1 hour and then washed by the washing solutions for 5 times. Thereafter, HRP substrates were added to the plate, and the plate was left for colorimetric reaction for 10 to 20 minutes in the dark. The colorimetric reaction was terminated later using 1 N H₂SO₄, and the OD450 value was obtained in a plate reader.

T1 sequence (chain, as listed by the source limits assumed): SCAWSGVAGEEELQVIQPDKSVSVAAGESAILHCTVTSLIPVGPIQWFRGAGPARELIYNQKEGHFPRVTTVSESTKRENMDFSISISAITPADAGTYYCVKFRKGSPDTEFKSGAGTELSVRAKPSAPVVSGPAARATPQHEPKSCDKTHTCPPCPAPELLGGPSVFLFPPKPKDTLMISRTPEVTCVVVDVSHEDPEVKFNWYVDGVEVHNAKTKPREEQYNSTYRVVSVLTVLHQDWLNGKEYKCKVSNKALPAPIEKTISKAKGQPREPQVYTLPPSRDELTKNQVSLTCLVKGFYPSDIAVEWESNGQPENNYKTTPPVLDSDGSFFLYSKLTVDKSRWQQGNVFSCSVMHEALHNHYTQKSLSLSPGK

| binding result | Binder |
| --- | --- |
| binds | CD32b (FcγRIIb) (receptor, UniProt P31994 46-217, looked up, Bought recombinant protein coated on an ELISA plate) APPKAVLKLEPQWINVLQEDSVTLTCRGTHSPESDSIQWFHNGNLIPTHTQPSYRFKANNNDSGEYTCQTGQTSLSDPVHLTVLSEWLVLQTPHLEFQEGETIVLRCHSWKDKPLVKVTFFQNGKSKKFSRSDPNFSIPQANHSHSGDYHCTGNIGYTLYSSKPVTITVQAP |
| binds | CD64 (FcγRI) (receptor, UniProt P12314 16-288, looked up, Bought recombinant protein coated on an ELISA plate) QVDTTKAVITLQPPWVSVFQEETVTLHCEVLHLPGSSSTQWFLNGTATQTSTPSYRITSASVNDSGEYRCQRGLSGRSDPIQLEIHRGWLLLQVSSRVFTEGEPLALRCHAWKDKLVYNVLYYRNGKAFKFFHWNSNLTILKTNISHNGTYHCSGMGKHRYTSAGISVTVKELFPAPVLNASVTSPLLEGNLVTLSCETKLLLQRPGLQLYFSFYMGSKTLRGRNTSSEYQILTARREDSGLYWCEAATEDGNVLKRSPELELQVLGLQLPTP |
